Data on four molecules can be found in paper doi:10.1101/2025.01.31.636011, “Discovery of a distinct BAM complex in the Bacteroidetes” (bioRxiv, 2025).

The labels stand for the following.
B4: BtBamG (Bt4306) (natural protein, UniProt Q89ZS0 18-542, looked up)
chain: CDDNTGGLGLGMFPGNDQNIKGKLSTFDVTTESVKTGDIYAKTNIGYIGKFTDETFGTYQAGFLAQLNCPDGLTFPEPYKEVTDASGNVISATGRMVVDDKDPENKDVTFIKDGNQIIGNIRAVELYLWYDSYFGDSLTACRLSVYELGGNGKETLNLDNAYYTDINPEDFYDSQNILGTKAYTAVDLSVKDSIRNLSTYVPSVHIAFKEDIATRVGGNILTAARKAKNADKEFNSQLFREAFQGIYVKSDYGDGTVLYIDQPQMNVVYKCYATDSITGKKLQKKDGSGKDSTYYSYRVFATTREVIQANQLKNDPERIDALIKEDKNTYLKSPAGIFTEATLPISDIQNELTGDTLNAVKLTFTNYNQTGDKKFGMAIPSTVMLVRKKFQDSFFKDNKLSDGVSSYLTSHTSSTNQYVFSNITKLVNACIAEKEEAKKNAGSSWDETKWLQENPDWNKVVLIPVLVTYDSSNTTTGQANIIRIQHDLKPGYVRLKGGSLGKTNPDYKLKLEVISTDFGLTTKSN
modifications: tri-acylated lipid anchor on the N-terminal cysteine; O-glycosylation (glycan on Ser309)
notes: also called Bt4306/BamG

Common to all, as to settings: both partners purified
Assay [1] concerns the target B4. Briefly: cryo-EM structure.
The target in assay [2] is B4. Briefly: cryo-EM structure; BtBAM complex co-purified through BtBamAhis from B. theta membranes, in DDM, 8 mg/ml; two 3D classes and a composite model.
For assay [3], the target named is T1, PgBamA (PGN_0299) (Porphyromonas gingivalis (endogenous in …, UniProt B2RHH3 20-891)).
T1 construct: also called P. gingivalis BamA; source: endogenous, P. gingivalis expressing His-tagged BamG, membranes solubilised in DDM
T1 sequence: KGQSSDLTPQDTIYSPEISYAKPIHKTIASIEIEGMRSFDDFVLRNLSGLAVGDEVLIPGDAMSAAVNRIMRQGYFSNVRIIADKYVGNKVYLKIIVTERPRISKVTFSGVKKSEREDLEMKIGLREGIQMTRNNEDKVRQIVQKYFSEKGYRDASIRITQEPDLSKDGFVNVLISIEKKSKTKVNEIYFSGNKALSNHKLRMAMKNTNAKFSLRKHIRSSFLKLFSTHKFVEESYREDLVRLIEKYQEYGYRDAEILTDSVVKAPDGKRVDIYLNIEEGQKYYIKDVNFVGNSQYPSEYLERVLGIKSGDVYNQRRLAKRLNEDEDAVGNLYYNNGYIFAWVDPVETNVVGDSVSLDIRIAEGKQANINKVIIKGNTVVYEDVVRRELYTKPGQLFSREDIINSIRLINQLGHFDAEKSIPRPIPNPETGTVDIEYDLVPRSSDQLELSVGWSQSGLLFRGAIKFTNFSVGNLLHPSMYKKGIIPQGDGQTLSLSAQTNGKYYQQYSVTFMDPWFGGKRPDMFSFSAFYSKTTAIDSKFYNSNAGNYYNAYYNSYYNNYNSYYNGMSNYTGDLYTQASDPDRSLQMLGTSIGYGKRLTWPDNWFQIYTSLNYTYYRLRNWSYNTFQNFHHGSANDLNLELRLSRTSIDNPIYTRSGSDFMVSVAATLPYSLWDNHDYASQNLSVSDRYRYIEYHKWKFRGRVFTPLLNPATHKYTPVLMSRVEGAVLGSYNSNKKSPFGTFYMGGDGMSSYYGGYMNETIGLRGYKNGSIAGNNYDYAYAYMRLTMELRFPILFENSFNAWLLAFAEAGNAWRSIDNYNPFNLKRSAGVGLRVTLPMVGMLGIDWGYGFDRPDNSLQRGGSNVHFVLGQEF
Briefly: cryo-EM structure; PgBAM complex co-purified through C-terminally His-tagged PgBamG from P. gingivalis membranes, in DDM, 4.9 mg/ml.

For assay [4], the target named is T2, BtBamA (Bt3725) with an N-terminal His7 tag (Bacteroides thetaiotaomicron, UniProt Q8A1E1 20-885).
T2 construct: also called BtBamAhis; BamAhis
T2 sequence (looked up): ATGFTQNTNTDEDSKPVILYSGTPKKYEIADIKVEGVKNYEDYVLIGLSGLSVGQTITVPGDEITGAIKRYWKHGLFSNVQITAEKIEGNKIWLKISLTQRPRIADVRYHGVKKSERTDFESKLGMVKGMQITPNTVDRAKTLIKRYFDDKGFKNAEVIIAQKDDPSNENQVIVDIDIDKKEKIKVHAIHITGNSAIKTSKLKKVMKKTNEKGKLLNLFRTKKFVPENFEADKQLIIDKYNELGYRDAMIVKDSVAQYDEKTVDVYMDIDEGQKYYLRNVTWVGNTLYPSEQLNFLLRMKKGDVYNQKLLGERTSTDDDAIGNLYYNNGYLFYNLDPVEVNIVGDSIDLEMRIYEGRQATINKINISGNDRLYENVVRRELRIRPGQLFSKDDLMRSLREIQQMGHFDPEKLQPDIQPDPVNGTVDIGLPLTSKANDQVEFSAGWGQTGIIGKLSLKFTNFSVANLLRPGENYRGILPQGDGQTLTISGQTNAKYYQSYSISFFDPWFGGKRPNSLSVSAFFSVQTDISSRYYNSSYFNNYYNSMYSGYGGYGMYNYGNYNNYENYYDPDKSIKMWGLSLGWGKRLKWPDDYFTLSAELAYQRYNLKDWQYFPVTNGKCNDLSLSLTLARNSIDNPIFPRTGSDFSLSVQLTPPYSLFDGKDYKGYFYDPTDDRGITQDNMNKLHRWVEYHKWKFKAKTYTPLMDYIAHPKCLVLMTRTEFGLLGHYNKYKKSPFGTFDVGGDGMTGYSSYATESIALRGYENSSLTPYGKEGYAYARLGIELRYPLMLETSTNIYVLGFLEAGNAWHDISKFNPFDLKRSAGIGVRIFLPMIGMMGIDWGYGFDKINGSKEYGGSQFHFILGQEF
Briefly: cryo-EM structure; BtBAM complex co-purified through BtBamAhis from B. theta membranes, in DDM, 8 mg/ml; two 3D classes and a composite model.

B1: BtBamF (Bt4367) (natural protein, UniProt Q89ZL0 23-431, looked up)
chain: QNNTNSPYTRYGYGDLSDQSFGNSKAMGGIAFGLRDGAQINPTNPASYTAIDSLTFLFEGGVSLQNMNISGGGLKLNAKNASFDYLAMQFRLAPWMAMSVGLLPYSNVGYTVSDSQTTDNGLAYSRSFTGDGGLHQMYVGAGVKVLKNLSVGVNASYFWGDITRTRGMFYPGTSSYDSYQRKMVTSISDYKLDFGAQYTQALNKKSSLTIGAVYSPKHKLNNDYTSIVIMGASSSSYGTEYKDVLDATFELPNTFGVGFTYNYDKRLTVGADYSLQQWSKTNFGVVTSDENVRQDFNETFTYCDRTKISVGAEYIPNLIGRSYFAHIKYRLGAYYTTPYYKIDGKKASREYGVTAGFGLPVPRSRSILSISGQFVRVKGLETNMVNENIFRVSIGLTFNERWFFKRRVE
modifications: O-glycosylation (glycan on Ser75)
As to B1, the binding result in assay [1] is “binds”.

B2: BtBamI (Bt3612) (natural protein, UniProt Q8A1P7 20-196, looked up)
chain: CSETEEVGKYDNWRARNEAFIDSLANVYATASGRGGLERIEMLTAPGNYIYYKEMEPMTDHVVKAGNPKYTDYVKVYYKGTNILGEYFDGNFKGDNPVVDGKDPSEGDSPTTIFQVSGVITGWGEVLQRMEVGDRWKVYIPWDYAYGSSGTTGILGYSALVFDITLLDFANTEAELK
modifications: O-glycosylation (sites not given)
As to B2, in assay [2], the binding result is “binds”.

B3: PgBamG (PGN_1735) with a C-terminal 7His-tag (natural protein)
chain: CDDDLSPIGGSIQPPSDPVSARVDTLEFSVKTIPMGDIYNRTNYTLLGDLTDPEYGDLKADYIMQFKSPRNFKFKYPPKDGKIDSVKLSINYDSWAGDSTSIMKVSIYKINKAIPPSYYSTQELASLLDETQIIASQTFKAGNDSAFHRVRIPLPNEIGQKIYDLSVNNPSVFDTQESFYNNVLGGLYVTTTTGTGVVLSVYNTQMAIFYSYKVAADSTATASETFVNTSESYQVNHIKNSQISHLLQENDSLSCVKSPAGVMTQLTISKEQFTDAFTSNLSSSLAWQIGEAQFNISASKPSEGLMLSPPSYLLLLPQDSVRNFFEQEQTELMQPRTAFLSTIYNIKKREYRFSNISRLLMEHIKNNTEKTPEGKPYITKDLVLVLLPVKRQVAGASNSLYTSQLNNFMFPSGVKLQLGKKNKTARIGVYSMTYTDN
modifications: tri-acylated lipid anchor; O-glycosylation, 7 sites
notes: also called His-tagged BamG; source: P. gingivalis expressing C-terminally His-tagged BamG (homologous recombination), membranes solubilised in DDM; not shown: His7, C-terminal, kept
Consider B3, for which, in assay [3], the binding result is listed as “binds”.
As to B4, in assay [4], the binding result is on record as “binds”.
